Common to all, as to test: yeast scFv FACS
Test [1] addresses BoNT/B3 (Clostridium botulinum).
Test [2] has as its target BoNT/B2 (Clostridium botulinum).
For test [3], the target named is BoNT/B4 (Clostridium botulinum).
In test [4] the target is BoNT/C1 or other subtypes.

As usually defined, the Kd is the constant that tells how readily two partners part at equilibrium. Read a high Kd as lower affinity.

B1: 18E5 scFv (scFv)
scFv: EVQLQESGPELVKPGASVKISCKASGYTFTDHNMDWVKQSLGKSLEWIGDINPNNGGAVYNQNFKGKATLTVDKSSSTAYMELRSLTSEDTAVYYCARYGYYGYFDYWGQGTTLTVSSVDLKSGGSTSGSGKPGSGEGSSGSARQIVLTQSPAIMSASPGEKVTMTCRASSSVSSSYLHWYQQKPGSSPKLWIYSTSNLASGVPARFSGSGSGTSYSLTISSVEAEDAATYYCQQYDSSPSTFGAGTKLEIK
Consider B1, for which the Kd came out at 2.56 nM in test [1], 2.66 nM in test [2] and 1.36 nM in test [3].

B2: 26D9 scFv (scFv)
scFv: DVQLQESGAELVKPGASVKLSCKASGFTFTDYWMHWVKQRPGQGLEWIGMIHPYNGDNNYHEKFKSKATLTVDKSSSTAYMQLSSLTTEDSAVYYCVRNDYDPYYYALDYWGQGTSLTVSAVDLKSGGSTSGSGKPGSGEGSSGSARQIVLTQSPAIMSASPGEKVTMSCRASSSVSYVYWYQQKPGSSPKPWIYRTSNLASGVPVRFSGSGSGTSYSLTISRVEAEDAATYYCQQWSSYPPTFGGGTKLEIK
In turn, B2 displayed a Kd in test [2] of 0.467 nM.

B3: 19D2 scFv (scFv)
scFv: EVQLQQSGGELARPGSSVKLSCKASGYSFTGYSLTWVKQTPGQGLEWIGEIYPRSGNTYYNENFQGKATLTADESSSTAYMELRSLTSEDSAVYFCARDFYDYDGGGRGYWGQGTTLTVSSVDLKSGGSTSGSGKPGSGEGSSGSARDIVMTQTPAIMSASPGEKVTITCSASSSVSYMHWYQQKPGTSPKLWIYSTSNLASGVPARFSGSGSGTSYSLTISRMEAEDAATYYCQQRSSYPYTFGGGTKLEIK
As for B3, the Kd turned out to be 1.47 nM in test [1], 1.85 nM in test [2] and 1.84 nM in test [3].

B4: 19A9 scFv (scFv)
scFv: EVQLQQPGSELARPGASVKLSCKASGYTFTSYPITWVKQTTGQGLEWIGEIYPRSGNTYYNEKFKGKATLTADKSSSTAYMELRSLTSEDSAVYFCARDYYDYAGGGRGYWGQGTTLTVSSVDLKSGGSTSGSGKPGSGEGSSGSARDIVLTQSPAIMSASPGGKITITCSASSSVSYMHWFQQKPGTSPKLWIYSTSNLASGVPARFSGSGSGTSYSLTISRMEAEDAATYYCQQRSSYPYTFGGGTKLEIK
Turning to B4, the Kd in test [1] was found to be 1.18 nM; in test [2], 0.88 nM; in test [3], 1.04 nM.

B5: 16B3 scFv (scFv)
scFv: EVQLQQSGPELVKPGASVKITCKASGYTFTDNNMDWVKQSHGKSLEWIGDINPNNGGSIYNQKFKGKASLTLDKSSSTAYMELRSLTSEDTAVYYCARWGYYGSLAYWGQGTLVTVSSVDLKSGGSTSGSGKPGSGEGSSGSARQNVLTQSPAIMSASPGEKVTMTCSASSSVSSRYLHWYQQKSGASPKLWIYGTSNLASGVPARFSGSGSGTSYSLTISSVEAEDAATYYCQQYHSDPLTFGGGTKLEIK
Take B5: the figures for the Kd in test [1], in test [2] and in test [3] were 0.49 nM, 0.75 nM and 0.71 nM, respectively.

B6: 26B2 scFv (scFv)
scFv: DVQLQESGPELVKPGASVKISCKASGYTFADYYINWVKQSHGKSLEWIGDFNPNNGDHSYNQKFKDKATLTVDESSNTAYMELRSLTSEDSAVYYCTREFYYYFDVWGTGTSVTVSSVDLKSGGSTSGSGKPGSGEGSSGSARDIEMTQTPAIMSASPGEKVTMTCSASSSVSSRYLHWYQQKSGASPKLWIYGTSNLASGVPARFSGSGSGTSYSLTISNVEAEDAATYYCQQYHSDPLTFGAGTKLEIK
In test [2], B6 yielded a Kd of 5.43 nM.

B7: 19B6 scFv (scFv)
scFv: QVQLQQSGAELVKPGASVKISCKASGYTFTDNYINWVKQRPGQGLEWIGWIHPGSGNAKYNEKFRAKATLTVDTSSNTAYMQLSSLTSEDSAVYFCARVGFRVNFDYWGQGTTLTVSSVDLKSGGSTSGSGKPGSGEGSSGSARQIVLTQSPAIMSASPGEKVTMTCSASSSLSYVHWYQQKPGSSPKPWIYATSNLVSGVPARFSGSRSGTSYSLTISSMEAEDAATYYCQQWSSYPPTFGAGTKLEIK
In the case of B7, the Kd in test [1] stood at 866 nM; in test [2], 35.6 nM; in test [3], 43.5 nM.

B8: 8DC3 scFv (scFv, V domains shown)
VH: QVQLVQSGGGLVKPGGSLRLSCAASGFTFSSHSMNWVRQAPGKGLEWVSSISSSSSYIYYADSVKGRFTISRDNSKNSLYLQLNSLRAEDTAVYYCARGDHDFRSGYYGMDVWGQGTMVTVSS
VL: AELTQDPAVSVALGQTVRITCQGDSLRNYYASWYQQKPGQAPVLVIYGKNIRPSGIPDRFSGSSSGNTASLTITGAQAEDEADYYCNSRDSNGNHYVFGTGTKVTVL
Molecule B8 showed a Kd in test [4] greater than 20 nM.

B9: 18F2 scFv (scFv)
scFv: EVQLQQSGPELMKPGASVKISCKASGYAFSRSWMNWVKQRPGKGLEWIGRIYPGDGDTNYNGKFKDKASLTADTSSSTAYMQLSSLTSEDSAVYFCTKSEGYYHNLGAYWGQGTTVTVSSVDLKSGGSTSGSGKPGSGEGSSGSAREIVLTQSPAIMSASPGQKVTITCSASSSVSYMHWYQQKSGTSPKRWIYDTSKLASGVPARFSGSGSGTSYSLIISSMEAEDAATYYCQQWRSNPPTFGGGTRLEIK
For B9, the Kd in test [2] came to 8.75 nM.

B10: 19D22 scFv (scFv)
scFv: QIQLLQSGAELVRPGTSVKMSCKAAGYPFTSYWMGWVKQRPGHGLEWIGDIYPGGPYTNYNEKFKGKATLTADTSSSTAYMQFSSLTSEDSAIYYCALYGQVGSYAMDYWGQGTSVTVSSVDLKSGGSTSGSGKPGSGEGSSGSARQIVLTQSPAIMSASPGEKVTMTCSASSSVSYMYWYQQKPGSSPRLLIYDTSNLASGVPVRFSGSGSGTSYSLTISRMEAEDAATYYCQQWSSYPPITFGAGTKLEIK
In the case of B10, the values for the Kd in test [1], in test [2] and in test [3] were 3.77 nM, 5 nM and 5.24 nM, respectively.

B11: 18A6 scFv (scFv)
scFv: EVQLQQSGPELVKPGASVKISCKASGYTFTDNYINWVKQRPGQGLEWIGWIYPGSGNTKYNEKFKGKATLTVDTSSNTAYMQLTGLASDDSAVYFCARVNFYVSWDYWGQGTSVTVSSVDLKSGGSTSGSGKPGSGEGSSGSAREIVLTQSPAIMSASPGEKVTMTCSASSSISYMHWFQQKPGMSPKRRIFDTSKLASGVPARFSGSGSGTSYSLTISSMEAEDAGTYYCHQRSSYPFTFGGGTKLELK
For the molecule B11, the Kd was found to be 27.9 nM in test [1], 32.4 nM in test [2] and 30.6 nM in test [3].

B12: 18D10 scFv (scFv)
scFv: QVQLKQSGIEVMKPGASVKLSCKASGYPFTAYWIEWVKQRPGHGLEWIGEFLPGGISTNFNEKFKGKATFSADTSSNSAYIQLNSLTTEDSAIYYCVLTGTGFDYWGQGTSVTVSSVDLKSGGSTSGSGKPGSGEGSSGSARENVLTQSPAIMSASPGEKVTMTCSASSSVSYMHWYQQKSGTSPKRWIYDTSKLASGVPARFSGSGSGTSYSLTISSMEAEDAATYYCQQWSSNPLTFGAGTKLELK
B12: the Kd in test [1] was 3.35 nM; in test [2], 5.57 nM; in test [3], 4.2 nM.

B13: 26E6 scFv (scFv)
scFv: EVQLQQSGPELVKPGASVKISCKASGYTFADYYINWVKQSHGKSLEWIGDFNPNNGDHSYNQKFKDKATLTVDESSNTAYMELRSLTSEDSAVYYCTREFYYYFDVWGTGTTVTVSSVDLKSGGSTSGSGKPGSGEGSSGSARDIVMSQSPLSLPVSLGDQAFISCRFSQSIVHSNGNTYLEWYLQKPGQSPKLLIYKVSNRFSGVPDRFSGSGSGTDFTLKISRVEAEDLGVYYCFQGSHVPYTFGGGTKLEIK
As for B13, the Kd in test [2] was found to be 17.6 nM.

B14: 26G5 scFv (scFv)
scFv: EVQLQESGPGLAKPSQTLSLTCSVTGYSITSDYWNWIRKFPGNKLEYMGYISYSGSTYYNPSLKSRISITRDTSKNQYYLQLNSVTTEDTATYYCARSFYDGYLYFDYWGQGTTVTVSSVDLKSGGSTSGSGKPGSGEGSSGSAREIVLTQSPAILSASPGEKVTMTCSASSSVSYMYWYQQKPGSSPRLLIYDTSNLASGVPARFSGSGSGTSYSLTISRVEAEDAATYYCQQWSSYPPTFGDGTRLEIK
Consider B14, for which the Kd in test [2] came to 30.5 nM.

(Values after patent publication US20220089784A1.)
